Reference: paper PMC2820149 (Journal of the American Chemical Society, 2010)
One block for each molecule: values may come before it.

Experiments:
[1] = tested on: Pa0142 homologue (gi|44264246)
[2] = substrate: Nc1nc2nc[nH]c2c(=O)[nH]1; assay: deamination kinetics; type: biochemical, Escherichia coli
[3] = substrate: Nc1nc2nc[nH]c2c(=O)[nH]1; assay: coupled ammonia assay; type: biochemical, Pseudomonas aeruginosa; conditions: pH 8.0, 30 °C
[4] = substrate: Nc1nccc(O)n1; assay: coupled ammonia assay; type: biochemical, Pseudomonas aeruginosa; conditions: pH 8.0, 30 °C
[5] = substrate: Nc1nc2nc[nH]c2c(=O)[nH]1; assay: deamination kinetics; type: biochemical, Pseudomonas aeruginosa

Km [1]: 1600 ± 200 µM
Molecule: Nc1nccc(=O)[nH]1 [compound 3, isocytosine]

Km [1]: 1000 ± 100 µM
Molecule: Nc1nc2[nH]cnc2c(=O)[nH]1 [compound 2, guanine]

B1: b2883 (Escherichia coli K-12) (protein)
chain: MMSGEHTLKAVRGSFIDVTRTIDNPEEIASALRFIEDGLLLIKQGKVEWFGEWENGKHQIPDTIRVRDYRGKLIVPGFVDTHIHYPQSEMVGAYGEQLLEWLNKHTFPTERRYEDLEYAREMSAFFIKQLLRNGTTTALVFGTVHPQSVDALFEAASHINMRMIAGKVMMDRNAPDYLLDTAESSYHQSKELIERWHKNGRLLYAITPRFAPTSSPEQMAMAQRLKEEYPDTWVHTHLCENKDEIAWVKSLYPDHDGYLDVYHQYGLTGKNCVFAHCVHLEEKEWDRLSETKSSIAFCPTSNLYLGSGLFNLKKAWQKKVKVGMGTDIGAGTTFNMLQTLNEAYKVLQLQGYRLSAYEAFYLATLGGAKSLGLDDLIGNFLPGKEADFVVMEPTATPLQQLRYDNSVSLVDKLFVMMTLGDDRSIYRTYVDGRLVYERN
Km [2]: 150 ± 10 µM | kcat [2]: 12.5 ± 0.2 s⁻¹

B2: Pa0142 (Pseudomonas aeruginosa PAO1) (protein)
chain: MSRTWIRNPLAIFTANGLDAAGGLVVEDGRIVELLGAGQQPAQPCASQFDASRHVVLPGLVNTHHHFYQTLTRAWAPVVNQPLFPWLKTLYPVWARLTPEKLELATKVALAELLLSGCTTAADHHYLFPGGLEQAIDVQAGVVEELGMRAMLTRGSMSLGEKDGGLPPQQTVQEAETILADSERLIARYHQRGDGARVQIALAPCSPFSVTPEIMRASAEVAARHDVRLHTHLAETLDEEDFCLQRFGLRTVDYLDSVGWLGPRTWLAHGIHFNAEEIRRLGEAGTGICHCPSSNMRLASGICPTVELEAAGAPIGLGVDGSASNDASNMILEARQALYLQRLRYGAERITPELALGWATRGSARLLGRSDIGELAPGKQADLALFKLDELRFSGSHDPLSALLLCAADRADRVMVGGAWRVVDGAVEGLDLAALIARHRAAASALIAG
Km [3]: 2600 ± 600 µM | kcat [3]: 3.3 ± 0.6 s⁻¹ | Km [4]: 1800 ± 100 µM | kcat [4]: 3.9 ± 0.1 s⁻¹

B3: Pa0134 (Pseudomonas aeruginosa PAO1) (protein)
chain: MNDAVPAGNFVPPLILHSDHGGSAMSSSAHRGRILHFLGDPAKLGDKAWEYFEDGLLWIEHGHVRALDHATYLLPQLPADLPLEEHPQRLLLPGFVDCHVHYPQLGVIASYGTQLLDWLETHTFPAEQRFADAGYAAAQAELFLDELLRHGTTTALVFGTVHAVSAEAFFQAAQKRRLRMIAGKVLMDRNAPPALCDTAASGYAESRALIERWHGNGRLQYAVTPRFAPTSSPEQLAAAARLLDEYPGVYLHTHLSENLKEVAWVGELFPQAQDYLDVYHRAGLVGERSVFAHGIHLSERECRCLAHKNAALAHCPSSNLFIGSGLFDLGRAQQYGIRVGIGSDVGGGTSLSLLANLADAYKIQQLRGTSLDPFQALYLATLGGARALDLDGLVGNFLPGREADFVALDLAATPMIAQRMEHARGLADTLFVLNTLGDDRAVAETWVMGERRHVKG
Km [5]: 500 ± 90 µM | kcat [5]: 21 ± 2 s⁻¹
